# Source: the supplement of paper PMC11246515
# ± gives the standard deviation of the averaged measurements.
# Experiment: total protein half-life in vivo (active degradation + dilution); higher = more stable protein
# [1] = E. coli NCM3722 delta-clpP delta-lon delta-hslV, growth: N-lim chemostat, doubling time 6 h
# [2] = wild type E. coli NCM3722, growth: C-lim chemostat, doubling time 6 h
# [3] = wild type E. coli NCM3722, growth: C-lim chemostat, doubling time 12 h
# [4] = E. coli NCM3722 delta-clpP, growth: N-lim chemostat, doubling time 6 h
# [5] = E. coli NCM3722 delta-hslV, growth: N-lim chemostat, doubling time 6 h
# [6] = E. coli NCM3722 delta-lon, growth: N-lim chemostat, doubling time 6 h
# [7] = E. coli NCM3722 delta-smpB, growth: N-lim chemostat, doubling time 6 h
# [8] = wild type E. coli NCM3722, growth: C-lim chemostat, doubling time 3 h
# [9] = wild type E. coli NCM3722, growth: N-lim chemostat, doubling time 6 h
# [10] = wild type E. coli NCM3722, growth: N-lim chemostat, doubling time 12 h
# [11] = wild type E. coli NCM3722, growth: P-lim chemostat, doubling time 6 h
# [12] = wild type E. coli NCM3722, growth: P-lim chemostat, doubling time 12 h
Sequence,total protein half-life in vivo [1] [h],total protein half-life in vivo [2] [h],total protein half-life in vivo [3] [h],total protein half-life in vivo [4] [h],total protein half-life in vivo [5] [h],total protein half-life in vivo [6] [h],total protein half-life in vivo [7] [h],total protein half-life in vivo [8] [h],total protein half-life in vivo [9] [h],total protein half-life in vivo [10] [h],total protein half-life in vivo [11] [h],total protein half-life in vivo [12] [h]
MLVSCAMRLHSGVFPDYAEKLPQEEKMEKEDSFPQRVWQIVAAIPEGYVTTYGDVAKLAGSPRAARQVGGVLKRLPEGSTLPWHRVVNRHGTISLTGPDLQRQRQALLAEGVMVSGSGQIDLQRYRWNY [P0AFP2],5.49 ± 0.093,4.04,3.96,,,,,,,,,
MQNSALKAWLDSSYLSGANQSWIEQLYEDFLTDPDSVDANWRSTFQQLPGTGVKPDQFHSQTREYFRRLAKDASRYSSTISDPDTNVKQVKVLQLINAYRFRGHQHANLDPLGLWQQDKVADLDPSFHDLTEADFQETFNVGSFASGKETMKLGELLEALKQTYCGPIGAEYMHITSTEEKRWIQQRIESGRATFNSEEKKRFLSELTAAEGLERYLGAKFPGAKRFSLEGGDALIPMLKEMIRHAGNSGTREVVLGMAHRGRLNVLVNVLGKKPQDLFDEFAGKHKEHLGTGDVKYHMGFSSDFQTDGGLVHLALAFNPSHLEIVSPVVIGSVRARLDRLDEPSSNKVLPITIHGDAAVTGQGVVQETLNMSKARGYEVGGTVRIVINNQVGFTTSNPLDARSTPYCTDIGKMVQAPIFHVNADDPEAVAFVTRLALDFRNTFKRDVFIDLVCYRRHGHNEADEPSATQPLMYQKIKKHPTPRKIYADKLEQEKVATLEDATEMVNLYRDALDAGDCVVAEWRPMNMHSFTWSPYLNHEWDEEYPNKVEMKRLQELAKRISTVPEAVEMQSRVAKIYGDRQAMAAGEKLFDWGGAENLAYATLVDEGIPVRLSGEDSGRGTFFHRHAVIHNQSNGSTYTPLQHIHNGQGAFRVWDSVLSEEAVLAFEYGYATAEPRTLTIWEAQFGDFANGAQVVIDQFISSGEQKWGRMCGLVMLLPHGYEGQGPEHSSARLERYLQLCAEQNMQVCVPSTPAQVYHMLRRQALRGMRRPLVVMSPKSLLRHPLAVSSLEELANGTFLPAIGEIDELDPKGVKRVVMCSGKVYYDLLEQRRKNNQHDVAIVRIEQLYPFPHKAMQEVLQQFAHVKDFVWCQEEPLNQGAWYCSQHHFREVIPFGASLRYAGRPASASPAVGYMSVHQKQQQDLVNDALNVE [P0AFG3],5.96 ± 0.15,5.13 ± 0.19,8.677 ± 0.03,6.43 ± 0.87,5.92 ± 0.14,5.36 ± 0.23,4.99 ± 0.18,2.51 ± 0.028,5.377 ± 0.027,10.1 ± 0.89,4.72 ± 0.17,9.32 ± 0.68
MTNPQFAGHPFGTTVTAETLRNTFAPLTQWEDKYRQLIMLGKQLPALPDELKAQAKEIAGCENRVWLGYTVAENGKMHFFGDSEGRIVRGLLAVLLTAVEGKTAAELQAQSPLALFDELGLRAQLSASRSQGLNALSEAIIAATKQV [P0AGF2],4.97 ± 0.16,5.18 ± 0.76,8.98 ± 0.8,4.73 ± 0.56,4.9 ± 0.33,5.38 ± 0.38,4.87 ± 0.87,3.4 ± 0.066,4.504 ± 0.012,8.14 ± 0.94,5.64 ± 0.32,11.1 ± 0.35
MIASKFGIGQQVRHSLLGYLGVVVDIDPVYSLSEPSPDELAVNDELRAAPWYHVVMEDDNGLPVHTYLAEAQLSSELQDEHPEQPSMDELAQTIRKQLQAPRLRN [P0AB20],3.23 ± 0.48,,,,,1.99 ± 0.27,,,,,,
MTQGAVKTTGKRSRAVSAKKKAILSAALDTFSQFGFHGTRLEQIAELAGVSKTNLLYYFPSKEALYIAVLRQILDIWLAPLKAFREDFAPLAAIKEYIRLKLEVSRDYPQASRLFCMEMLAGAPLLMDELTGDLKALIDEKSALIAGWVKSGKLAPIDPQHLIFMIWASTQHYADFAPQVEAVTGATLRDEVFFNQTVENVQRIIIEGIRPR [P0ACU2],6.17 ± 0.95,5.35,12.1 ± 1.9,5.74 ± 0.36,,5.5 ± 0.84,4.92 ± 0.71,2.31 ± 0.54,5.39 ± 0.83,10.8 ± 1.4,4.61 ± 0.38,9.98 ± 0.25
MSRINKFVLTVSLLIFIMISAVACGIYTQMVKERVYSLKQSVIDTAFAVANIAEYRRSVAIDLINTLNPTEEQLLVGLRTAYADSVSPSYLYDVGPYLISSDECIQVKEFEKNYCADIMQVVKYRHVKNTGFISFDGKTFVYYLYPVTHNRSLIFLLGLERFSLLSKSLAMDSENLMFSLFKNGKPVTGDEYNAKNAIFTVSEAMEHFAYLPTGLYVFAYKKDVYLRVCTLIIFFAALVAVISGASCLYLVRRVINRGIVEKEAIINNHFERVLDGGLFFSAADVKKLYSMYNSAFLDDLTKAMGRKSFDEDLKALPEKGGYLCLFDVDKFKNINDTFGHLLGDEVLMKVVKILKSQIPVDKGKVYRFGGDEFAVIYTGGTLEELLSILKEIVHFQVGSINLSTSIGVAHSNECPTVERLKMLADERLYKSKKNGRAQISWQ,,5.63 ± 1.6,,,,,5.51 ± 1.1,,6.47 ± 1.1,,6.08 ± 0.31,13.1 ± 1.4
MSNLSPDFVLPENFCANPQEAWTIPARFYTDQNAFEHEKENVFAKSWICVAHSSELANANDYVTREIIGESIVLVRGRDKVLRAFYNVCPHRGHQLLSGEGKAKNVITCPYHAWAFKLDGNLAHARNCENVANFDSDKAQLVPVRLEEYAGFVFINMDPNATSVEDQLPGLGAKVLEACPEVHDLKLAARFTTRTPANWKNIVDNYLECYHCGPAHPGFSDSVQVDRYWHTMHGNWTLQYGFAKPSEQSFKFEEGTDAAFHGFWLWPCTMLNVTPIKGMMTVIYEFPVDSETTLQNYDIYFTNEELTDEQKSLIEWYRDVFRPEDLRLVESVQKGLKSRGYRGQGRIMADSSGSGISEHGIAHFHNLLAQVFKD [P0ABR7],,,,,,,,0.182,,,,
MHQSGSVSLCRSAISVLVATALYSPIALASTVEYGETVDGVVLEKDIQLVYGTANNTKINPGGEQHIKEFGVSNNTEINGGYQYIEMNGAAEYSVLNDGYQIVQMGGAANQTTLNNGVLQVYGAANDTTIKGGRLIVEKDGGAVFVAIEKGGLLEVKEGGFAFAVDQKAGGAIKTTTRAMEVFGTNRLGQFDIKNGIANNMLLENGGSLRVEENDFAYNTTVDSGGLLEVMDGGTVTGVDKKAGGKLIVSTNALEVSGPNSKGQFSIKDGVSKNYELDDGSGLIVMEDTQAIDTILDKHATMQSLGKDTGTKVQANAVYDLGRSYQNGSITYSSKAISENMVINNGRANVWAGTMVNVSVRGNDGILEVMKPQINYAPAMLVGKVVVSEGASFRTHGAVDTSKADVSLENSVWTIIADITTTNQNTLLNLANLAMSDANVIMMDEPVTRSSVTASAENFITLTTNTLSGNGNFYMRTDMANHQSDQLNVTGQATGDFKIFVTDTGASPAAGDSLTLVTTGGGDAAFTLGNAGGVVDIGTYEYTLLDNGNHSWSLAENRAQITPSTTDVLNMAAAQPLVFDAELDTVRERLGSVKGVSYDTAMWSSAINTRNNVTTDAGAGFEQTLTGLTLGIDSRFSREESSTIRGLIFGYSHSDIGFDRGGKGNIDSYTLGAYAGWEHQNGAYVDGVVKVDRFANTIHGKMSNGATAFGDYNSNGAGAHVESGFRWVDGLWSVRPYLAFTGFTTDGQDYTLSNGMRADVGNTRILRAEAGTAVSYHMDLQNGTTLEPWLKAAVRQEYADSNQVKVNDDGKFNNDVAGTSGVYQAGIRSSFTPTLSGHLSVSYGNGAGVESPWNTQAGVVWTF,5.12,,,,,,,,,,,
MSDLLCSAKLGAMTLALLLSATSLSALASVTPDRTRLIFNESDKSISVTLRNNDPKLPYLAQSWIEDEKGNKITSPLTVLPPVQRIDSMMNGQVKVQGMPDINKLPADRESMFYFNVREIPPKSNKPNTLQIALQTRIKLFWRPKALEKVSMKSPWQHKVTLTRSGQAFTVNNPTPYYVIISNASAQKNGNPAAGFSPLVIEPKTTVPLNVKMDSVPVLTYVNDFGARMPLFFQCNGNSCQVDEEQSRKG,,,,,,,,,,,4.16,
